Assay [1] concerns the target T1, Aβ11-42 fibrils (Homo sapiens (species , …, UniProt P05067)).
T1 construct: amyloid beta peptide with N-terminal deletion, Aβ11-42; Amyloid fibrils; source: synthetic peptide, bought: Anaspec; assembled into fibrils, purified by ultracentrifugation
T1 chain: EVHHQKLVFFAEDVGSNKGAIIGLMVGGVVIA
The assay can be described thus: far-Western, overlay or dot blot; immunodot blot: fibrils of Aβ1-42 and N-terminal truncations spotted on nitrocellulose at equal Thioflavin T fluorescence; antibodies at 10 nM in PBST with 1% milk; anti-human Fc HRP, 3 min exposure. The settings on record: both partners purified.

Assay [2] deals with T2, Aβ4-42 fibrils (Homo sapiens (species , …, UniProt P05067)).
T2 construct: amyloid beta peptide with N-terminal deletion, Aβ4-42; Amyloid fibrils; source: synthetic peptide, bought: Bachem; assembled into fibrils, purified by ultracentrifugation
Described as above. The settings on record: both partners purified.

Assay [3] addresses T3, Aβ3-42 fibrils (Homo sapiens (species , …, UniProt P05067)).
T3 construct: amyloid beta peptide with N-terminal deletion, Aβ3-42; Amyloid fibrils; also called fibrils without the first two residues; source: synthetic peptide, bought: Bachem; assembled into fibrils, purified by ultracentrifugation
The assay is described as above. Conditions: both partners purified.

Assay [4] deals with T4, Aβ2-42 fibrils (Homo sapiens (species , …, UniProt P05067)).
T4 construct: amyloid beta peptide with N-terminal deletion, Aβ2-42; Amyloid fibrils; also called fibrils without the first residue; source: synthetic peptide, bought: Bachem; assembled into fibrils, purified by ultracentrifugation
The assay is described as above. The settings on record: both partners purified.

In assay [5] the target is T5, Aβ5-42 fibrils (Homo sapiens (species , …, UniProt P05067)).
T5 construct: amyloid beta peptide with N-terminal deletion, Aβ5-42; Amyloid fibrils; source: synthetic peptide, bought: Bachem; assembled into fibrils, purified by ultracentrifugation
Described as above. The settings on record: both partners purified.

The target in assay [6] is T6, Aβ1-42 fibrils (Homo sapiens (species , …, UniProt P05067, biotin on 1% of the peptides in the fibrils for the bead assays; unlabeled fibrils on the blots).
T6 construct: amyloid beta peptide 1-42 (Aβ1-42), cut product of the amyloid precursor protein; also called Aβ fibrils; Aβ42 fibrils; source: synthetic peptide, bought: Anaspec; assembled into fibrils at 37 °C with 10% fibril seeds, purified by ultracentrifugation
The assay can be described thus: flow cytometry on beads; Aβ fibrils (1% biotinylated, 1 μM) immobilised on streptavidin Dynabeads, blocked with 10% milk; antibody dilutions in PBSB with 1% milk, 3 h, 25 °C; detected with goat anti-human Fc AF647; apparent affinity (EC50). The settings on record: both partners purified. Background: A flow cytometer gives signals particle by particle.

In assay [7] the target is T7, disaggregated Aβ1-42 (Homo sapiens (species , …, UniProt P05067)).
T7 construct: amyloid beta peptide 1-42 (Aβ1-42), cut product of the amyloid precursor protein; also called disaggregated (D) Aβ; disaggregated Aβ42; source: synthetic peptide, bought: Anaspec; dissolved in HFIP, then 50 mM NaOH, ultracentrifuged, neutralised
Briefly: far-Western, overlay or dot blot; immunodot blot: disaggregated Aβ and fibrils of Aβ, IAPP and α-synuclein spotted on nitrocellulose; antibodies at 10 nM in PBST with 1% milk, room temperature, 3 h; anti-human Fc HRP, X-ray film, 30 s or 45 min exposure. The settings on record: both partners purified.

The target of assay [8] is T6, Aβ1-42 fibrils. Described as above. Conditions: both partners purified.
The target in assay [9] is T8, Aβ aggregates formed in vivo in 5xFAD transgenic mouse brain (human).
T8 construct: Aβ derived from human amyloid precursor protein (APP) expressed in 5xFAD mice; the APP transgene carries the Swedish (K670N/M671L), Florida (I716V) and London (V717I) mutations; The target stands in a brain homogenate or tissue section, not as a pure peptide; also called 5xFAD samples; Aβ plaques
Briefly: far-Western, overlay or dot blot; immunodot blot: brain extracts (7 μg total protein) of 5xFAD and wild-type mice spotted on nitrocellulose; antibodies at 50 nM in TBST with 1% milk, overnight, 4 °C. The settings on record: one partner purified.

Where “and” joins values, the source holds several entries; their conditions need not be identical. Identical values can stand only once.

B1: crenezumab (variable domains grafted onto an IgG1 scaffold with a human Fc fragment) (antibody, V domains shown)
VH: EVQLVESGGGLVQPGGSLRLSCAASGFTFSSYGMSWVRQAPGKGLELVASINSNGGSTYYPDSVKGRFTISRDNAKNSLYLQMNSLRAEDTAVYYCASGDYWGQGTTVTVSS
VL: DIVMTQSPLSLPVTPGEPASISCRSSQSLVYSNGDTYLHWYLQKPGQSPQLLIYKVSNRFSGVPDRFSGSGSGTDFTLKISRVEAEDVGVYYCSQSTHVPWTFGQGTKVEIK
notes: heavy-chain variable domain of crenezumab; light-chain variable domain of crenezumab; IgG1 here; source: HEK293-6E expression plasmids, transfected cells, purified from the medium (Protein A)
On to B1, for which the binding result in [1], in assay [2], in assay [3], in [4] and in assay [5] was “binds” in each case.

B2: AF1 (scFv, V domains shown)
VH: EVQLVESGGGLVQPGGSLRLSCAASGFNIKDTYIHWVRQAPGKGLEWVARIYPTNGYTRYADSVKGRFTISADTSKNTAYLQMNSLRAEDTAVYYCARDGYDGSYFVGYDYNDFYDYWGQGTLVTVSS
VL: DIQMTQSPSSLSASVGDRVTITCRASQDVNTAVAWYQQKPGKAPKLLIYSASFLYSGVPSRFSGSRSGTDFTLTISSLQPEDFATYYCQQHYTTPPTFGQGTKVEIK
notes: scFv-Fc fusion protein; also called lead antibody; parental antibody; source: HEK293-6E expression plasmids, transfected cells, purified from the medium (Protein A)
Take B2: the EC50 (commonly the concentration at which the effect is half-maximal) in assay [6] is 99 nM.

B3: clone 97 (scFv, V domains shown)
VH: EVQLVESGGGLVQPGGSLRLSCAASGFNIKDTYIHWVRQAPGKGLEWVARIYPASGATRYADSVKGRFTISADTSKNTAYLQMNSLRAEDTAVYYCARDGYDGSYFVGYDYNDFYDYWGQGTLVTVSS
VL: DIQMTQSPSSLSASVGDRVTITCRASQNVAYAVTWYQQKPGKAPKLLIYSASFLYSGVPSRFSGSRSGTDFTLTISSLQPEDFATYYCQQHSTYPPTFGQGTKVEIK
notes: scFv-Fc fusion protein; Parent of 97A3; source: HEK293-6E expression plasmids, transfected cells, purified from the medium (Protein A)
Consider B3, for which the EC50 in assay [6] was 8 nM and 18 nM.

B4: clone 93 (scFv, V domains shown)
VH: EVQLVESGGGLVQPGGSLRLSCAASGFNIKDTYIHWVRQAPGKGLEWVARIYPSNGYTRYAGSVKGRFTISADTSKNTAYLQMNSLRAEDTAVYYCARDGYDGSYFVGYDYNDFYDYWGQGTLVTVSS
VL: DIQMTQSPSSLSASVGDRVTITCRASQNVYNAVTWYQQKPGKAPKLLIYSASFLYSGVPSRFSGSRSGTDFTLTISSLQPEDFATYYCQQHNTYPPTFGQGTKVEIK
notes: scFv-Fc fusion protein; source: HEK293-6E expression plasmids, transfected cells, purified from the medium (Protein A)
Turning to B4, the binding result in assay [7], in assay [8] and in assay [9] was “binds” each time.

The values are drawn from article PMC8081927 (The Journal of Biological Chemistry, 2021).
